Data set [1] concerns the target T1, mpCAR (Mycolicibacterium phlei, UniProt A0A5N5VEC4).
T1 construct: gene car; N-terminal 6xHis tag, pNIC28-Bsa4, E. coli BL21(DE3); co-expressed with Bacillus subtilis phosphopantetheine transferase; gene from genomic DNA
T1 sequence (A0A5N5VEC4 1-1162): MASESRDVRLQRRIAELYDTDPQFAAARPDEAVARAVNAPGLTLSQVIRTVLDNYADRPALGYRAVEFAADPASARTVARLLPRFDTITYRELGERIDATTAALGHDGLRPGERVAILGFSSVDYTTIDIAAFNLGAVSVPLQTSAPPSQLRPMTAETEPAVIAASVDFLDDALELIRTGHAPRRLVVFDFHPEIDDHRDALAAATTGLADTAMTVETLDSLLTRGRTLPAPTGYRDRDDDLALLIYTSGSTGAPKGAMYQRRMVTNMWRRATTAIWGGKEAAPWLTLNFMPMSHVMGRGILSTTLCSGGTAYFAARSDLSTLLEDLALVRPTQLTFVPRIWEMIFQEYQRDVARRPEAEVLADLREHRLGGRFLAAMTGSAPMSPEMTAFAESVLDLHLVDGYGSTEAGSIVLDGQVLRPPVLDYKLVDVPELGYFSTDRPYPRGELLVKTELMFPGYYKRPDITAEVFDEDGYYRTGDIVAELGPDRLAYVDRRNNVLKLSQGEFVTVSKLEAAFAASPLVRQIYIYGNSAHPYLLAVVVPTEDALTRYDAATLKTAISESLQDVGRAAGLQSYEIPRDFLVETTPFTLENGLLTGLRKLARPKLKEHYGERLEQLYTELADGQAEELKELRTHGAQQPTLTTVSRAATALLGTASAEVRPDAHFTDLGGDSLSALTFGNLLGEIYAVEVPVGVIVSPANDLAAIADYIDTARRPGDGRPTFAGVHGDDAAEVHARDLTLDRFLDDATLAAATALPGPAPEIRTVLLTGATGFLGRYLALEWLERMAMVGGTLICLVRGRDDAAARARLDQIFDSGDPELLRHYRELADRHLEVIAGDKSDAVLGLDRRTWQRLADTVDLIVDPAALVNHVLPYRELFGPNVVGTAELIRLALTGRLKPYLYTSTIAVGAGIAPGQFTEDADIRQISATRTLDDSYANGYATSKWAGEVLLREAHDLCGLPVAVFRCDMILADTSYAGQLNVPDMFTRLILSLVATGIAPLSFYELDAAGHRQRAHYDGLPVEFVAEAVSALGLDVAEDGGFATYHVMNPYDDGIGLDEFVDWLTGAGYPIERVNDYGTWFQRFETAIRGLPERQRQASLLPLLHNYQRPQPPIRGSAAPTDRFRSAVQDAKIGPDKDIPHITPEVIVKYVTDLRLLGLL
Put plainly: NADPH oxidation at […] nm, two-substrate fit. Type of data set: biochemical. The note with it: kinetic constant for ATP in the ordered rate equation, not an inhibition constant; otherwise as row above.

Data set [2] addresses T1, mpCAR. The experiment in a line: inhibition of CAR reaction. Particulars: read-out: K I-ADP. The format is biochemical. From the text:
inhibition of CAR reaction on mpCAR

Substrate in data set [3]: NC(=O)C1=CN([C@@H]2O[C@H](COP(=O)(O)OP(=O)(O)OC[C@H]3O[C@@H](n4cnc5c(N)ncnc54)[C@H](OP(=O)(O)O)[C@@H]3O)[C@@H](O)[C@H]2O)C=CC1
The experiment in a line: purified protein. The format is biochemical, Mycolicibacterium phlei. Particulars: 10 mM MgCl2, 1 mM ATP, 10 mM 4-toluic acid, 100 mM Tris-HCl pH 7.5, 30 °C, varied: cofactor.

Substrate in data set [4]: Nc1ncnc2c1ncn2[C@@H]1O[C@H](COP(=O)(O)OP(=O)(O)OP(=O)(O)O)[C@@H](O)[C@H]1O
The experiment in a line: purified protein. Type of data set: biochemical, Mycolicibacterium phlei. Particulars: 0.25 mM NADPH, 10 mM MgCl2, varied 4-toluic acid, 100 mM Tris-HCl pH 7.5, 30 °C.

Substrate in data set [5]: Cc1ccc(C(=O)O)cc1
The experiment in a line: purified protein. Particulars: 0.25 mM NADPH, 10 mM MgCl2, varied ATP, 100 mM Tris-HCl pH 7.5, 30 °C.

Substrate in data set [6]: Nc1ncnc2c1ncn2[C@@H]1O[C@H](COP(=O)(O)O)[C@@H](O)[C@H]1O
The experiment in a line: ADP-Glo kinase assay, luminescence. The format is biochemical, Thermodesulfobium narugense. Particulars: polyphosphate co-substrate (12.5 mM PO3 units), 20 or 40 mM MgCl2, 100 mM Tris-HCl pH 7.5, 15 min. From the text:
ADP-Glo kinase assay, luminescence on tnPAP

As for `Nc1ncnc2c1ncn2[C@@H]1O[C@H](COP(=O)(O)OP(=O)(O)OP(=O)(O)O)[C@@H](O)[C@H]1O` [ATP], at mpCAR [1], the “K I-ATP” value came to 0.04 ± 0.034 mM.

Turning to `Nc1ncnc2c1ncn2[C@@H]1O[C@H](COP(=O)(O)OP(=O)(O)O)[C@@H](O)[C@H]1O` [ADP], the Ki at mpCAR [2] worked out at 11 mM.

B1: mpCAR (Mycolicibacterium phlei DSM 43239 = CCUG 21000) (protein)
chain: MASESRDVRLQRRIAELYDTDPQFAAARPDEAVARAVNAPGLTLSQVIRTVLDNYADRPALGYRAVEFAADPASARTVARLLPRFDTITYRELGERIDATTAALGHDGLRPGERVAILGFSSVDYTTIDIAAFNLGAVSVPLQTSAPPSQLRPMTAETEPAVIAASVDFLDDALELIRTGHAPRRLVVFDFHPEIDDHRDALAAATTGLADTAMTVETLDSLLTRGRTLPAPTGYRDRDDDLALLIYTSGSTGAPKGAMYQRRMVTNMWRRATTAIWGGKEAAPWLTLNFMPMSHVMGRGILSTTLCSGGTAYFAARSDLSTLLEDLALVRPTQLTFVPRIWEMIFQEYQRDVARRPEAEVLADLREHRLGGRFLAAMTGSAPMSPEMTAFAESVLDLHLVDGYGSTEAGSIVLDGQVLRPPVLDYKLVDVPELGYFSTDRPYPRGELLVKTELMFPGYYKRPDITAEVFDEDGYYRTGDIVAELGPDRLAYVDRRNNVLKLSQGEFVTVSKLEAAFAASPLVRQIYIYGNSAHPYLLAVVVPTEDALTRYDAATLKTAISESLQDVGRAAGLQSYEIPRDFLVETTPFTLENGLLTGLRKLARPKLKEHYGERLEQLYTELADGQAEELKELRTHGAQQPTLTTVSRAATALLGTASAEVRPDAHFTDLGGDSLSALTFGNLLGEIYAVEVPVGVIVSPANDLAAIADYIDTARRPGDGRPTFAGVHGDDAAEVHARDLTLDRFLDDATLAAATALPGPAPEIRTVLLTGATGFLGRYLALEWLERMAMVGGTLICLVRGRDDAAARARLDQIFDSGDPELLRHYRELADRHLEVIAGDKSDAVLGLDRRTWQRLADTVDLIVDPAALVNHVLPYRELFGPNVVGTAELIRLALTGRLKPYLYTSTIAVGAGIAPGQFTEDADIRQISATRTLDDSYANGYATSKWAGEVLLREAHDLCGLPVAVFRCDMILADTSYAGQLNVPDMFTRLILSLVATGIAPLSFYELDAAGHRQRAHYDGLPVEFVAEAVSALGLDVAEDGGFATYHVMNPYDDGIGLDEFVDWLTGAGYPIERVNDYGTWFQRFETAIRGLPERQRQASLLPLLHNYQRPQPPIRGSAAPTDRFRSAVQDAKIGPDKDIPHITPEVIVKYVTDLRLLGLL
notes: N-terminal 6xHis tag, pNIC28-Bsa4, E. coli BL21(DE3); co-expressed with Bacillus subtilis phosphopantetheine transferase; gene from genomic DNA
Regarding B1, the figures for the Km in “purified protein [3]”, in the data set “purified protein [4]” and in “purified protein [5]” were 30 ± 8 µM, 100 ± 28 µM and 1,500±320 μM, respectively. For the same molecule, the kcat in “purified protein [3]”, in the data set “purified protein [4]” and in the data set “purified protein [5]” was 3.33 ± 0.333 s⁻¹ throughout.

B2: tnPAP (Thermodesulfobium narugense DSM 14796) (protein)
chain: MLEKVDLNKIMDREDYKKEFDNLSIELGALQREARDLKLPIIIVFDGFEAAGKGTLINKLMLPLDPRGYDVIKRFECPSETDNRPYFYKFWKTIPKRGDISIVNESWYKALLSDRVLKKTSPEIVEYLFDEILSFEGQLVADGYLIVKFFLYISEEEQKDRLKKLKKNKDESWRVTDDVLKLHKKYKKFLDAAETVFEKTDTAFAPWTIIEATDKRYATIKIFKTLIEAIKFKIKAIKEKEELPSFENFYPVNELSSLSKIDLNKSLTYEEYIEKLHPLQREIHDLQYRLWKERVPVIVAFEGWDAAGKGGSIKRLTEAMDPRGYTVIPIGAPNEYELAHHYLWRFWQNVPEKGNIAIFDRTWYGRVLVERVEKLCKDFDWQRAYGEIKQMEKQFTNFGIVLLKFWLHIDKKTQLERFEEREKNPFKHWKITEDDWRNRSKWDDYLPAVEEMLIRTSTAEAPWNIIEANDKYFARIKVLETFVNKIKEKLN
notes: N-terminal 6xHis tag, codon-optimised, pNIC28-Bsa4, E. coli
With B2, in data set [6], the Km was 280 ± 240 µM and the kcat worked out at 4.17 ± 2.08 s⁻¹.
